These results are taken from paper PMC5620161, “Remarkably similar CTLA-4 binding properties of therapeutic ipilimumab and tremelimumab antibodies” (Oncotarget, 2017).

The target in the test is T1, ectodomain of human CTLA-4 (aa 31-161) (human, UniProt P16410-1).
T1 construct: CTLA-4, human, ectodomain, residues 31-161 of UniProt P16410-1; Homodimer held by a disulfide bond (non-reducing SDS-PAGE and crystal structure); Cloned into pET-21a; also called extracellular domain of CTLA-4
The experiment in a line: SPR; BIAcore T100, CM5 chip, CTLA-4 immobilised (5 μg/ml), scFv flowed at 6.25-200 nM, room temperature, HBS-EP (150 mM NaCl, 10 mM HEPES pH 7.4, 0.005% Tween-20), 1:1 Langmuir model. The conditions noted are these: both partners purified. Background: SPR reads the build-up and loss of mass on a sensor chip optically.

T1 sequence (P16410 31-161): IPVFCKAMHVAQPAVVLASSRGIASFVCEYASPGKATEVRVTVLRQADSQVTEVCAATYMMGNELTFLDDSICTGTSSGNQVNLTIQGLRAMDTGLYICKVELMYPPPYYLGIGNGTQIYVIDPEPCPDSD

B1: scFv fragment of tremelimumab (scFv, V domains shown)
VH: QVQLVESGGGVVQPGRSLRLSCAASGFTFSSYGMHWVRQAPGKGLEWVAVIWYDGSNKYYADSVKGRFTISRDNSKNTLYLQMNSLRAEDTAVYYCARDPRGATLYYYYYGMDVWGQGTTVTVSS
VL: DIQMTQSPSSLSASVGDRVTITCRASQSINSYLDWYQQKPGKAPKLLIYAASSLQSGVPSRFSGSGSGTDFTLTISSLQPEDFATYYCQQYYSTPFTFGPGTKVEIK
notes: VL of tremelimumab (IGKV1-39 framework); the Fab of tremelimumab is in PDB 5GGV; linker, printed as GG(GGSGG)3GG; VH of tremelimumab (IGHV3-33 framework); Built as VL-GG(GGSGG)3GG-VH in pET21a; The parent antibody is an IgG2; only the scFv was made here; also called tremelimumab-scFv; CP-675,206
In general, Kd refers to the concentration at which binding is half-saturated. The low end stands for tighter binding, the high end for weaker binding. The term koff denotes the first-order rate constant of dissociation. Low readings indicate slow dissociation, high ones fast dissociation. As a reminder, the kon is the rate constant with which the complex forms. Read a low kon as slow association. Regarding B1, the Kd came out at 5.89 nM, the koff is 0.0018 s⁻¹ and the kon came to 308000 M⁻¹ s⁻¹.
